According to the supplement of paper PMC10567573:

B1: OAS1 (parent)
chain: YIGTHEYPHFSHRPSTLQAASTPQ

Variants of: B1
Assay: protein stability index of a GFP-peptide fusion (GPS, HEK-293T) (PSI 1-6); higher = more stable
Conditions: c terminus: a fixed tail appended
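Note: lentivirally expressed fusions sorted by FACS into six bins by GFP to DsRed ratio, PSI derived from sequencing read proportions per bin multiplied by bin number.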

Going from YIGTHEYPHFSHRPSTLQAASYPQ [T22Y] to YIGTHEYPHFSDRPSTLQAASTPQ [H12D], the protein stability index rises from 1.71 to 2.49.

Going from YIGTHEYPVFSHRPSTLQAASTPQ [H9V] to YIGTHEGPHFSHRPSTLQAASTPQ [Y7G], the protein stability index rises from 1.78 to 1.98.

First: YIGTHEYPHFSHRPSTKQAASTPQ [L17K]
Second: YIGTHEYPHSSHRPSTLQAASTPQ [F10S]
The protein stability index of the first is lower: 1.79 for the first, 2.9 for the second.

First: YIGTHEYPHFSHRPSQLQAASTPQ [T16Q]
Second: YIGTHEYPLFSHRPSTLQAASTPQ [H9L]
The protein stability index of the first is higher: 2.3 for the first, 1.67 for the second.

First: YIGTHEYPHFSHRPSTLQAASTFQ [P23F]
Second: YIGTHEYSHFSHRPSTLQAASTPQ [P8S]
The protein stability index of the first is lower: 1.72 for the first, 1.95 for the second.

Going from YIGTHEYPHFSHRPSTMQAASTPQ [L17M] to YIGWHEYPHFSHRPSTLQAASTPQ [T4W], the protein stability index rises from 2.24 to 2.89.

First: YIGTHEYPHFSHRPSTLQAANTPQ [S21N]
Second: YIGTHEYCHFSHRPSTLQAASTPQ [P8C]
The protein stability index of the first is lower: 1.85 for the first, 2.12 for the second.

Going from YIGTHEYPHFSHRPSTLQAASTCQ [P23C] to YDGTHEYPHFSHRPSTLQAASTPQ [I2D], the protein stability index rises from 1.88 to 3.48.

Going from YIGTHEYPHFSHRPSTLQAALTPQ [S21L] to YIGTHEYTHFSHRPSTLQAASTPQ [P8T], the protein stability index rises from 1.53 to 1.54.

First: YIGTHEYPHFSHRPSHLQAASTPQ [T16H]
Second: NIGTHEYPHFSHRPSTLQAASTPQ [Y1N]
The protein stability index of the first is lower: 2.02 for the first, 4.04 for the second.

First: EIGTHEYPHFSHRPSTLQAASTPQ [Y1E]
Second: YIGTHEYPHFSVRPSTLQAASTPQ [H12V]
The protein stability index of the first is higher: 4.08 for the first, 1.93 for the second.

Going from YIGTHEYPHFSHRPSTLQAASTPK [Q24K] to YIGTHEYPHGSHRPSTLQAASTPQ [F10G], the protein stability index rises from 1.81 to 2.88.

Going from YIGTHEYPHFSCRPSTLQAASTPQ [H12C] to YIGTHEYPHFSHRPSTLQAASTIQ [P23I], the protein stability index rises from 2.64 to 2.74.

Going from YIGTHEYPHFSHRGSTLQAASTPQ [P14G] to YIGTHEYPHFSHRPSTCQAASTPQ [L17C], the protein stability index falls from 2.21 to 2.14.

Compared with YIGHHEYPHFSHRPSTLQAASTPQ [T4H], YIGTFEYPHFSHRPSTLQAASTPQ [H5F] is higher in protein stability index: 1.95 for the first, 2.28 for the second.

Going from YIGTHEYPHFSHRMSTLQAASTPQ [P14M] to YIGTHEYPHFSSRPSTLQAASTPQ [H12S], the protein stability index rises from 1.74 to 1.83.

First: YIGTHEYPHFLHRPSTLQAASTPQ [S11L]
Second: YIGTHEYPHFSHRPSTLQAASTLQ [P23L]
The protein stability index of the first is higher: 2.54 for the first, 1.73 for the second.

Going from YIGTHEYPHFSHRFSTLQAASTPQ [P14F] to YIGTGEYPHFSHRPSTLQAASTPQ [H5G], the protein stability index rises from 1.49 to 2.09.

Going from YIGTHEYPHFSHRPSTLFAASTPQ [Q18F] to YIGTHEYPHFSHRPSTAQAASTPQ [L17A], the protein stability index falls from 2.25 to 1.84.

First: YIGTHEYPHFSHDPSTLQAASTPQ [R13D]
Second: YIGTHEYPHFVHRPSTLQAASTPQ [S11V]
The protein stability index of the first is lower: 2.52 for the first, 2.85 for the second.

First: YIGTHEYPHFSHRPSTLQAHSTPQ [A20H]
Second: YIGTHMYPHFSHRPSTLQAASTPQ [E6M]
The protein stability index of the first is higher: 1.64 for the first, 1.46 for the second.

First: YIGTHEYPHFSHRPSTLQAADTPQ [S21D]
Second: YIGTHEYPHFSHRHSTLQAASTPQ [P14H]
The protein stability index of the first is lower: 1.89 for the first, 2.1 for the second.

Going from YIPTHEYPHFSHRPSTLQAASTPQ [G3P] to IIGTHEYPHFSHRPSTLQAASTPQ [Y1I], the protein stability index rises from 2.28 to 3.58.

Going from YIGTHAYPHFSHRPSTLQAASTPQ [E6A] to YIGTHEYPHFSHRPSTLQAMSTPQ [A20M], the protein stability index falls from 2 to 1.93.

First: YQGTHEYPHFSHRPSTLQAASTPQ [I2Q]
Second: YIGTHEYPHFSHRPSTLQAASHPQ [T22H]
The protein stability index of the first is higher: 2.59 for the first, 1.6 for the second.

Going from YIGTHEYPHFSHRPSRLQAASTPQ [T16R] to YIGTHEYPHFSHRPSTLPAASTPQ [Q18P], the protein stability index falls from 2.4 to 1.81.

Compared with YIGTHEYPHFSHRPSTLQADSTPQ [A20D], YIGTHESPHFSHRPSTLQAASTPQ [Y7S] is higher in protein stability index: 1.75 for the first, 2.55 for the second.

Going from YIGTHEYPHFFHRPSTLQAASTPQ [S11F] to YIGTHEYPGFSHRPSTLQAASTPQ [H9G], the protein stability index falls from 3.55 to 1.95.

Compared with YIGTVEYPHFSHRPSTLQAASTPQ [H5V], YIGTHEYPHFSHRPSTLQAASTWQ [P23W] is lower in protein stability index: 2.23 for the first, 1.97 for the second.

First: YIGTHEYPHFSHRPSTLQATSTPQ [A20T]
Second: YIGTHEYPHFSHRPSTLQAASTPG [Q24G]
The protein stability index of the first is lower: 2.04 for the first, 2.2 for the second.

Going from YIGTHEYPHFSHRPSTLQAVSTPQ [A20V] to YIGTHEYLHFSHRPSTLQAASTPQ [P8L], the protein stability index rises from 1.79 to 1.91.

First: YIGTHEYPHFSHRPSELQAASTPQ [T16E]
Second: YIGTHEYPHFEHRPSTLQAASTPQ [S11E]
The protein stability index of the first is lower: 2.46 for the first, 2.56 for the second.

Compared with WIGTHEYPHFSHRPSTLQAASTPQ [Y1W], YIGTHEYPHFSHRPSTLQEASTPQ [A19E] is lower in protein stability index: 2.73 for the first, 2.58 for the second.

Going from YIGTHEYPHFSHRKSTLQAASTPQ [P14K] to YIGTHEYPHFSHRPSILQAASTPQ [T16I], the protein stability index falls from 2.13 to 1.6.

Going from PIGTHEYPHFSHRPSTLQAASTPQ [Y1P] to YIGTHEYAHFSHRPSTLQAASTPQ [P8A], the protein stability index falls from 4.32 to 1.74.

Compared with YIGTHEYPHESHRPSTLQAASTPQ [F10E], YKGTHEYPHFSHRPSTLQAASTPQ [I2K] is higher in protein stability index: 3.25 for the first, 3.47 for the second.

Going from YIGTHEYPHFSHRSSTLQAASTPQ [P14S] to YIGTHEYPHFSHRNSTLQAASTPQ [P14N], the protein stability index rises from 1.64 to 2.1.

First: YIGTHEYPHFSERPSTLQAASTPQ [H12E]
Second: YIGTHEYPHMSHRPSTLQAASTPQ [F10M]
The protein stability index of the first is lower: 2.25 for the first, 2.73 for the second.

Compared with YIGTHEYPHFSHRPSTLQAASTVQ [P23V], YIGTHEYPHKSHRPSTLQAASTPQ [F10K] is higher in protein stability index: 1.81 for the first, 2.73 for the second.

Compared with YIGTHVYPHFSHRPSTLQAASTPQ [E6V], YIGTHEIPHFSHRPSTLQAASTPQ [Y7I] is higher in protein stability index: 1.88 for the first, 2.44 for the second.

Compared with QIGTHEYPHFSHRPSTLQAASTPQ [Y1Q], YIGTHEYPHFSHRPSTLQAASTPF [Q24F] is lower in protein stability index: 4.21 for the first, 1.77 for the second.

Going from YIGTHEYPHFSHRPSALQAASTPQ [T16A] to YIGTHQYPHFSHRPSTLQAASTPQ [E6Q], the protein stability index falls from 2.29 to 1.68.

Going from YIGTYEYPHFSHRPSTLQAASTPQ [H5Y] to YIGTHEYPHFSHRPSTLQAASGPQ [T22G], the protein stability index falls from 1.83 to 1.59.

Going from YIGTHEYPHFSHRPSTLQAAYTPQ [S21Y] to YIGTHEYPHFSHRPSTVQAASTPQ [L17V], the protein stability index rises from 1.95 to 2.3.

Compared with YIGTHEYPHFSRRPSTLQAASTPQ [H12R], YIGTHEYPFFSHRPSTLQAASTPQ [H9F] is lower in protein stability index: 2.55 for the first, 2.2 for the second.

Compared with YIGTHEYPHFSHRPSLLQAASTPQ [T16L], YLGTHEYPHFSHRPSTLQAASTPQ [I2L] is higher in protein stability index: 2.22 for the first, 2.73 for the second.

First: YIGTHEYPHFSHRPSTLDAASTPQ [Q18D]
Second: YIGTHEYPHFSHRPHTLQAASTPQ [S15H]
The protein stability index of the first is lower: 1.71 for the first, 1.82 for the second.
